Patent US7393670B2, “Tyrosyl-tRNA synthetase variants” (Japan Science and Technology Agency, priority 2001, dated 2008)

Key:
[1] = Aminoacylation reaction, simplified Lloyd's method, inorganic phosphate detected with Biomol green; format: biochemical; set-up: key: ***: the aminoacylation reaction was detected by a microplate reader in the reaction at enzyme concentrations of 50 nM; **: 500 nM; *: 5 μM; the activity is high in the order of *** > ** > * > —; settings: tyrosine 200 μM, 37° C. for 4 min
Description: (§1) In the first method, Lloyd's method (Nucleic Acids Research, 23:2886-2892, 1995) where inorganic phosphate produced by pyrophosphatase-drived hydrolysis of pyrophosphate which was one of the reaction products of the aminoacylation reactions was quantified was simplified, and the inorganic phosphate was detected using Biomol green (Funakoshi) to carry out the measurement of the aminoacylation reaction.
(§2) Amino acid concentrations were 200 μM and 1 mM for tyrosine and 3-iodotyrosine, respectively.
The method where the aminoacylation reaction is measured by quantifying inorganic phosphate produced by pyrophosphatase-drived hydrolysis of pyrophosphate which is one of reaction products of the aminoacylation has been described by Lloyd et al. (Nucleic Acids Research, 23:2886-2892, 1995). In one method of the invention, this method was simplified and the aminoacylation reaction was measured by the detection of inorganic phosphate using Biomol green (Funakoshi). […] To stop the reaction, 0.1 ml of Bio mol green was added. Absorbance of its supernatant was measured at 630 nm.

[2] = as above; format: biochemical; set-up: key: ***: the aminoacylation reaction was detected by a microplate reader in the reaction at enzyme concentrations of 50 nM; **: 500 nM; *: 5 μM; the activity is high in the order of *** > ** > * > —; settings: 3-iodotyrosine 1 mM, 37° C. for 4 min
Description: as §1, §2
The method where the aminoacylation reaction is measured by quantifying inorganic phosphate produced by pyrophosphatase-drived hydrolysis of pyrophosphate which is one of reaction products of the aminoacylation has been described by Lloyd et al. (Nucleic Acids Research, 23:2886-2892, 1995). In one method of the invention, this method was simplified and the aminoacylation reaction was measured by the detection of inorganic phosphate using Biomol green (Funakoshi). Each enzyme obtained was incubated with 0.05 ml of the buffer B containing 1 mM ATP (Seikagaku Corporation), 30 μM purified crude tyrosyl-tRNA, and 100 μM tyrosine or 0.5 mM 3-iodotyrosine at 37° C. for one hour. To stop the reaction, 0.1 ml of Bio mol green was added. Absorbance of its supernatant was measured at 630 nm.

| Molecule | Aminoacylation activity, Tyrosine ([1]; Table 2) | Aminoacylation activity, 3-iodotyrosine ([2]; Table 2) | Aminoacylation activity, Tyrosine ([1]; Table 3) | Aminoacylation activity, 3-iodotyrosine ([2]; Table 3) |
| --- | --- | --- | --- | --- |
| 37L: E. coli TyrRS variant: position 37 Leucine, position 195 Glutamine (protein, UniProt P0AGJ9 2-424, looked up, variant Y37L) Tyrosine--tRNA ligase: ASSNLIKQLQERGLVAQVTDEEALAERLAQGPIALLCGFDPTADSLHLGHLVPLLCLKRFQQAGHKPVALVGGATGLIGDPSFKAAERKLNTEETVQEWVDKIRKQVAPFLDFDCGENSAIAANNYDWFGNMNVLTFLRDIGKHFSVNQMINKEAVKQRLNREDQGISFTEFSYNLLQGYDFACLNKQYGVVLQIGGSDQWGNITSGIDLTRRLHQNQVFGLTVPLITKADGTKFGKTEGGAVWLDPKKTSPYKFYQFWINTADADVYRFLKFFTFMSIEEINALEEEDKNSGKAPRAQYVLAEQVTRLVHGEEGLQAAKRITECLFSGSLSALSEADFEQLAQDGVPMVEMEKGADLMQALVDSELQPSRGQARKTIASNAITINGEKQSDPEYFFKEEDRLFGRFTLLRRGKKNYCLICWK | *** | *** |  |  |
| 195A: E. coli TyrRS variant: position 37 Tyrosine, position 195 Alanine (protein, UniProt P0AGJ9 2-424, looked up, variant Q195A) Tyrosine--tRNA ligase: ASSNLIKQLQERGLVAQVTDEEALAERLAQGPIALYCGFDPTADSLHLGHLVPLLCLKRFQQAGHKPVALVGGATGLIGDPSFKAAERKLNTEETVQEWVDKIRKQVAPFLDFDCGENSAIAANNYDWFGNMNVLTFLRDIGKHFSVNQMINKEAVKQRLNREDQGISFTEFSYNLLQGYDFACLNKQYGVVLAIGGSDQWGNITSGIDLTRRLHQNQVFGLTVPLITKADGTKFGKTEGGAVWLDPKKTSPYKFYQFWINTADADVYRFLKFFTFMSIEEINALEEEDKNSGKAPRAQYVLAEQVTRLVHGEEGLQAAKRITECLFSGSLSALSEADFEQLAQDGVPMVEMEKGADLMQALVDSELQPSRGQARKTIASNAITINGEKQSDPEYFFKEEDRLFGRFTLLRRGKKNYCLICWK | *** | * |  |  |
| 195S: E. coli TyrRS variant: position 37 Tyrosine, position 195 Serine (protein, UniProt P0AGJ9 2-424, looked up, variant Q195S) Tyrosine--tRNA ligase: ASSNLIKQLQERGLVAQVTDEEALAERLAQGPIALYCGFDPTADSLHLGHLVPLLCLKRFQQAGHKPVALVGGATGLIGDPSFKAAERKLNTEETVQEWVDKIRKQVAPFLDFDCGENSAIAANNYDWFGNMNVLTFLRDIGKHFSVNQMINKEAVKQRLNREDQGISFTEFSYNLLQGYDFACLNKQYGVVLSIGGSDQWGNITSGIDLTRRLHQNQVFGLTVPLITKADGTKFGKTEGGAVWLDPKKTSPYKFYQFWINTADADVYRFLKFFTFMSIEEINALEEEDKNSGKAPRAQYVLAEQVTRLVHGEEGLQAAKRITECLFSGSLSALSEADFEQLAQDGVPMVEMEKGADLMQALVDSELQPSRGQARKTIASNAITINGEKQSDPEYFFKEEDRLFGRFTLLRRGKKNYCLICWK | *** | * |  |  |
| LS: E. coli TyrRS double variant: position 37 Leucine, position 195 Serine (protein, UniProt P0AGJ9 2-424, looked up, variant Y37L Q195S) Tyrosine--tRNA ligase: ASSNLIKQLQERGLVAQVTDEEALAERLAQGPIALLCGFDPTADSLHLGHLVPLLCLKRFQQAGHKPVALVGGATGLIGDPSFKAAERKLNTEETVQEWVDKIRKQVAPFLDFDCGENSAIAANNYDWFGNMNVLTFLRDIGKHFSVNQMINKEAVKQRLNREDQGISFTEFSYNLLQGYDFACLNKQYGVVLSIGGSDQWGNITSGIDLTRRLHQNQVFGLTVPLITKADGTKFGKTEGGAVWLDPKKTSPYKFYQFWINTADADVYRFLKFFTFMSIEEINALEEEDKNSGKAPRAQYVLAEQVTRLVHGEEGLQAAKRITECLFSGSLSALSEADFEQLAQDGVPMVEMEKGADLMQALVDSELQPSRGQARKTIASNAITINGEKQSDPEYFFKEEDRLFGRFTLLRRGKKNYCLICWK |  |  | — | — |
| 195C: E. coli TyrRS variant: position 37 Tyrosine, position 195 Cysteine (protein, UniProt P0AGJ9 2-424, looked up, variant Q195C) Tyrosine--tRNA ligase: ASSNLIKQLQERGLVAQVTDEEALAERLAQGPIALYCGFDPTADSLHLGHLVPLLCLKRFQQAGHKPVALVGGATGLIGDPSFKAAERKLNTEETVQEWVDKIRKQVAPFLDFDCGENSAIAANNYDWFGNMNVLTFLRDIGKHFSVNQMINKEAVKQRLNREDQGISFTEFSYNLLQGYDFACLNKQYGVVLCIGGSDQWGNITSGIDLTRRLHQNQVFGLTVPLITKADGTKFGKTEGGAVWLDPKKTSPYKFYQFWINTADADVYRFLKFFTFMSIEEINALEEEDKNSGKAPRAQYVLAEQVTRLVHGEEGLQAAKRITECLFSGSLSALSEADFEQLAQDGVPMVEMEKGADLMQALVDSELQPSRGQARKTIASNAITINGEKQSDPEYFFKEEDRLFGRFTLLRRGKKNYCLICWK | *** | * |  |  |
| 37I: E. coli TyrRS variant: position 37 Isoleucine, position 195 Glutamine (protein, UniProt P0AGJ9 2-424, looked up, variant Y37I) Tyrosine--tRNA ligase: ASSNLIKQLQERGLVAQVTDEEALAERLAQGPIALICGFDPTADSLHLGHLVPLLCLKRFQQAGHKPVALVGGATGLIGDPSFKAAERKLNTEETVQEWVDKIRKQVAPFLDFDCGENSAIAANNYDWFGNMNVLTFLRDIGKHFSVNQMINKEAVKQRLNREDQGISFTEFSYNLLQGYDFACLNKQYGVVLQIGGSDQWGNITSGIDLTRRLHQNQVFGLTVPLITKADGTKFGKTEGGAVWLDPKKTSPYKFYQFWINTADADVYRFLKFFTFMSIEEINALEEEDKNSGKAPRAQYVLAEQVTRLVHGEEGLQAAKRITECLFSGSLSALSEADFEQLAQDGVPMVEMEKGADLMQALVDSELQPSRGQARKTIASNAITINGEKQSDPEYFFKEEDRLFGRFTLLRRGKKNYCLICWK | ** | *** |  |  |
| 195N: E. coli TyrRS variant: position 37 Tyrosine, position 195 Asparagine (protein, UniProt P0AGJ9 2-424, looked up, variant Q195N) Tyrosine--tRNA ligase: ASSNLIKQLQERGLVAQVTDEEALAERLAQGPIALYCGFDPTADSLHLGHLVPLLCLKRFQQAGHKPVALVGGATGLIGDPSFKAAERKLNTEETVQEWVDKIRKQVAPFLDFDCGENSAIAANNYDWFGNMNVLTFLRDIGKHFSVNQMINKEAVKQRLNREDQGISFTEFSYNLLQGYDFACLNKQYGVVLNIGGSDQWGNITSGIDLTRRLHQNQVFGLTVPLITKADGTKFGKTEGGAVWLDPKKTSPYKFYQFWINTADADVYRFLKFFTFMSIEEINALEEEDKNSGKAPRAQYVLAEQVTRLVHGEEGLQAAKRITECLFSGSLSALSEADFEQLAQDGVPMVEMEKGADLMQALVDSELQPSRGQARKTIASNAITINGEKQSDPEYFFKEEDRLFGRFTLLRRGKKNYCLICWK | *** | * |  |  |
| IS: E. coli TyrRS double variant: position 37 Isoleucine, position 195 Serine (protein, UniProt P0AGJ9 2-424, looked up, variant Y37I Q195S) Tyrosine--tRNA ligase: ASSNLIKQLQERGLVAQVTDEEALAERLAQGPIALICGFDPTADSLHLGHLVPLLCLKRFQQAGHKPVALVGGATGLIGDPSFKAAERKLNTEETVQEWVDKIRKQVAPFLDFDCGENSAIAANNYDWFGNMNVLTFLRDIGKHFSVNQMINKEAVKQRLNREDQGISFTEFSYNLLQGYDFACLNKQYGVVLSIGGSDQWGNITSGIDLTRRLHQNQVFGLTVPLITKADGTKFGKTEGGAVWLDPKKTSPYKFYQFWINTADADVYRFLKFFTFMSIEEINALEEEDKNSGKAPRAQYVLAEQVTRLVHGEEGLQAAKRITECLFSGSLSALSEADFEQLAQDGVPMVEMEKGADLMQALVDSELQPSRGQARKTIASNAITINGEKQSDPEYFFKEEDRLFGRFTLLRRGKKNYCLICWK |  |  | — | — |
